Earlier results on three substances are cited in article PMC2921697.

Data set [1] addresses Barnase (denatured) (Bacillus amyloliquefaciens) (UniProt P00648). In words: H/D exchange NMR.
The target in data set [2] is prion protein (denatured recombinant) (UniProt P04156).

Broadly, the Kd is a measure of binding affinity in units of concentration. Regarding GroEL (from UniProt P0A6F5), the Kd in data set [1] is 50 nM.

As to Hsp60 (from UniProt P10809), in data set [2], the Kd is 1.5 nM. As to SecB (from UniProt P0AG86), the Kd in data set [1] was 50 nM.
